Experimental data published in CN109897111A (HANGZHOU HANSI BIOLOGICAL MEDICINE CO LTD, dated 2019).

What was measured:
hPD-1-his抗原 = hPD-1-his抗原 (human, UniProt Q15116 25-167, limits assumed); assay: ELISA, hPD-1-his coated 0.25 μg/ml
hPD-1-hIgGFc抗原 [1] = target: T1, hPD-1-hIgGFc抗原 (human, UniProt Q15116 25-167, limits assumed); assay: competition ELISA, hPD-1-hIgGFc coated, competitor PDL2-his tag 0.6 μg/ml
hPD-1-hIgGFc抗原 [2] = target: T1, hPD-1-hIgGFc抗原; assay: competition ELISA, hPD-1-hIgGFc coated, competitor PDL1-mIgG2aFc 0.6 μg/ml

T1 sequence (Q15116 25-167 limits assumed): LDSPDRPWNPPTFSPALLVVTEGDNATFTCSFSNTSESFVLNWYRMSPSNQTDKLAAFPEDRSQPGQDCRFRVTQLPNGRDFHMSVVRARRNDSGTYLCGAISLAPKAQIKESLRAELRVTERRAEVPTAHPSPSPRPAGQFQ
hPD-1-his抗原, sequence (Q15116 25-167 limits assumed): as above

EC50 (hPD-1-his抗原): 0.05 nM
IC50 (hPD-1-hIgGFc抗原 [1]): 2.7 nM
IC50 (hPD-1-hIgGFc抗原 [2]): 1 nM
B1: 人源化抗体H8 (抗PD-1的IgG类抗体) (antibody, V domains shown)
VH: EVQLVQSGGGLVQPGGSLKLSCAASGFTFSSYGMSWVRQAPGKGLDWVATISGGGRDTYYPDSVKGRFTISRDNSKNNLYLQMNSLRAEDTALYYCARQKGEAWFAYWGQGTLVTVSA
VL: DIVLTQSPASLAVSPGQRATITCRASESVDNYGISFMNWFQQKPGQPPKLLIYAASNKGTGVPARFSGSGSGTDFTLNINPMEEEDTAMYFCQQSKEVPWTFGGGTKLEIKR
notes: HX009-5 is H8 with linker-SIRPA added to the C-terminus of the heavy chain, and both share the light chain; also called HX008
